# Measurements taken from patent US20140274782A1, “AFFINITY REAGENTS AND METHODS FOR DETECTION, PURIFICATION, AND PROTEOMIC ANALYSIS OF METHYLATED PROTEINS” (The Board of Trustees of the Leland Stanford Junior …, priority 2013, published 2014).
# T1: G9a and GLP (Homo sapiens, UniProt Q96KQ7+Q9H9B1)
# T1 sequence (Q96KQ7 2-1210 limits assumed): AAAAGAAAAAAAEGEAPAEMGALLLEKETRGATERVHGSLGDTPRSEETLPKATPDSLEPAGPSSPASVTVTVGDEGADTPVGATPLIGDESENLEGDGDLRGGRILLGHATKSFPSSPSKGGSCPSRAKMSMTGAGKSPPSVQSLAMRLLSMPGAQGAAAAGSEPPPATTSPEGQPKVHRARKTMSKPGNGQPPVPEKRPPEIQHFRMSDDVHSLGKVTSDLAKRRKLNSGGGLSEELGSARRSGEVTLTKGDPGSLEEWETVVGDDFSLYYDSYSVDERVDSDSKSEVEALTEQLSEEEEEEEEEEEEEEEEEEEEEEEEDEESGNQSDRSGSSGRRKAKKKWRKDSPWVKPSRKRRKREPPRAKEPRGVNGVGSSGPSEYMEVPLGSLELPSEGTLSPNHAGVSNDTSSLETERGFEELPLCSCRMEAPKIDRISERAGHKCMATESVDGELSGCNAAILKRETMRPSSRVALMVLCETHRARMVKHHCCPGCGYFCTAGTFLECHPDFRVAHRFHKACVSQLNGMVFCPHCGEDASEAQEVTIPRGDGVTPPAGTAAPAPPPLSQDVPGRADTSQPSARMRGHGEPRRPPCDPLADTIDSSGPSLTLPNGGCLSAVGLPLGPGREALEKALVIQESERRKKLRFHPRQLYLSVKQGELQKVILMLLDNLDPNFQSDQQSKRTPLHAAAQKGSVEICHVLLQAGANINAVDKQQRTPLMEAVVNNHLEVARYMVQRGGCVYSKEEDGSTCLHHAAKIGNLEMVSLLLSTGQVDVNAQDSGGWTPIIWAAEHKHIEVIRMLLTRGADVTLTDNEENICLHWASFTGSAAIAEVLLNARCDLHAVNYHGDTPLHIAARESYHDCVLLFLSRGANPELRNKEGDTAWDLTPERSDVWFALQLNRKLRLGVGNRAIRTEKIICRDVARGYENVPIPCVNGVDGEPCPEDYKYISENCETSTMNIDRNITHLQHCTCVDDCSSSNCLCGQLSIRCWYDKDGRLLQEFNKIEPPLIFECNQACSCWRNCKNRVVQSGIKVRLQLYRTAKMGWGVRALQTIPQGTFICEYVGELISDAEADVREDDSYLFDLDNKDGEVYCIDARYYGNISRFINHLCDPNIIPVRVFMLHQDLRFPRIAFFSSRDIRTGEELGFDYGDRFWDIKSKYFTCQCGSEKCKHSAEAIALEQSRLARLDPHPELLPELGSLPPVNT
# T1 sequence (Q9H9B1 2-1298 limits assumed): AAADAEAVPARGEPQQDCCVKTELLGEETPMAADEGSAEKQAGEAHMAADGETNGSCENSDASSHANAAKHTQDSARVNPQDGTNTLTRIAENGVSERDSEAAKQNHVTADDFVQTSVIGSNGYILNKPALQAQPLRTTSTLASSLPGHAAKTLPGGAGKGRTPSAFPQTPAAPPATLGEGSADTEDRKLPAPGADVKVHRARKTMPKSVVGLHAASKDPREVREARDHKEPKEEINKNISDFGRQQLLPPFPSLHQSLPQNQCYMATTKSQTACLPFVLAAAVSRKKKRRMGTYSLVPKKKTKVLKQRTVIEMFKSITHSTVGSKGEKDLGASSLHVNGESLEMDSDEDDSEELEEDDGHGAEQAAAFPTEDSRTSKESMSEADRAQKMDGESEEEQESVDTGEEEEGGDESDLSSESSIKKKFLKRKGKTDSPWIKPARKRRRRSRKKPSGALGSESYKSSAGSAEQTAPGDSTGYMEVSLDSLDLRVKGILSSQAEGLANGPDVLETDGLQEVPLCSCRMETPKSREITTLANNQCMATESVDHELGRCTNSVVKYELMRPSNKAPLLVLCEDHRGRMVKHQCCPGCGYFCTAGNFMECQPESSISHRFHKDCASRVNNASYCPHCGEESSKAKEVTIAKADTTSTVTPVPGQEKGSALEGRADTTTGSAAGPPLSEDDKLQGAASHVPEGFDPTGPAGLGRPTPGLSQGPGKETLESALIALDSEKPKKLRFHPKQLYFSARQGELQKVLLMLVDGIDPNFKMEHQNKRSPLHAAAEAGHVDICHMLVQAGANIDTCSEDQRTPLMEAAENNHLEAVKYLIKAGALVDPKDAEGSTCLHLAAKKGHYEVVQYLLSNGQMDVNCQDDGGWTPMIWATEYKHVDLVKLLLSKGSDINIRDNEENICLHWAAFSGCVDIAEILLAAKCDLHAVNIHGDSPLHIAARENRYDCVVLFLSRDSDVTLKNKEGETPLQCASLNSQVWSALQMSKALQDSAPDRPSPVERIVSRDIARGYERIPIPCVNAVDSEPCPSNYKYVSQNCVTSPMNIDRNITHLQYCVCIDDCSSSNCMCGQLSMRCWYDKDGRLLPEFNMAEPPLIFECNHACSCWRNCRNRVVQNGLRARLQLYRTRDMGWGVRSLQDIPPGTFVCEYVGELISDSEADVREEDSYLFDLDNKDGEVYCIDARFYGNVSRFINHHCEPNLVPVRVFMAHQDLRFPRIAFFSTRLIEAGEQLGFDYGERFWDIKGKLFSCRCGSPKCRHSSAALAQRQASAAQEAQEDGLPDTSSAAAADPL
# Tests used:
# [1] = biological target: T1, G9a and GLP; assay: Triple SILAC pull-down after UNC0638 treatment of 293T cells, DMSO/UNC0638 ratio of protein captured by 3×MBT; type: cell-based; parameters: endogenous in cells; host or cells: HEK 293T; details: for Relative to UNC0638 UNC Heavy / Relative to UNC0638 UNC Light: SILAC ratio DMSO/UNC0638 of protein pulled down with 3xMBT; for Relative to UNC0638 UNC Heavy: UNC0638 in heavy SILAC media; for Relative to UNC0638 UNC Light: UNC0638 in light SILAC media; for Relative to UNC0638 Average: average of UNC Light and UNC Heavy experiments;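 on all read-outs here: mass spectrometry (Q-Exactive) SILAC quantitation, DMSO/UNC0638 ratio computed after subtracting 3×MBTD355N mutant pull-down background, only proteins with at least twofold 3×MBT over mutant signal considered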
# [2] = test system: 3×MBT domain of L3MBTL1; assay: Triple SILAC pull-down, 3xMBT/3xMBTD355N ratio (cytoplasmic, nuclear and chromatin fractions of 293T cells); type: binding, human; details: SILAC ratio, pull-down 3xMBT vs 3xMBTD355N; for 3xMBT/D355N UNC Heavy: experiment with UNC0638 in heavy SILAC media; for 3xMBT/D355N UNC Light: experiment with UNC0638 in light SILAC media;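 on all read-outs here: proteins quantified with MaxQuant, requiring at least two unique peptides and quantification in both label directions, normalized to the mean of proteins from a digested loading control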
Relative to UNC0638 UNC Heavy [1],Relative to UNC0638 UNC Light [1],Relative to UNC0638 Average [1],Molecule,3xMBT/D355N UNC Heavy [2],3xMBT/D355N UNC Light [2]
0.11 log base 2,0.18 log base 2,0.14 log base 2,"SF3B1 (protein, UniProt O75533 1-1304, looked up) Splicing factor 3B subunit 1: MAKIAKTHEDIEAQIREIQGKKAALDEAQGVGLDSTGYYDQEIYGGSDSRFAGYVTSIAATELEDDDDDYSSSTSLLGQKKPGYHAPVALLNDIPQSTEQYDPFAEHRPPKIADREDEYKKHRRTMIISPERLDPFADGGKTPDPKMNARTYMDVMREQHLTKEEREIRQQLAEKAKAGELKVVNGAAASQPPSKRKRRWDQTADQTPGATPKKLSSWDQAETPGHTPSLRWDETPGRAKGSETPGATPGSKIWDPTPSHTPAGAATPGRGDTPGHATPGHGGATSSARKNRWDETPKTERDTPGHGSGWAETPRTDRGGDSIGETPTPGASKRKSRWDETPASQMGGSTPVLTPGKTPIGTPAMNMATPTPGHIMSMTPEQLQAWRWEREIDERNRPLSDEELDAMFPEGYKVLPPPAGYVPIRTPARKLTATPTPLGGMTGFHMQTEDRTMKSVNDQPSGNLPFLKPDDIQYFDKLLVDVDESTLSPEEQKERKIMKLLLKIKNGTPPMRKAALRQITDKAREFGAGPLFNQILPLLMSPTLEDQERHLLVKVIDRILYKLDDLVRPYVHKILVVIEPLLIDEDYYARVEGREIISNLAKAAGLATMISTMRPDIDNMDEYVRNTTARAFAVVASALGIPSLLPFLKAVCKSKKSWQARHTGIKIVQQIAILMGCAILPHLRSLVEIIEHGLVDEQQKVRTISALAIAALAEAATPYGIESFDSVLKPLWKGIRQHRGKGLAAFLKAIGYLIPLMDAEYANYYTREVMLILIREFQSPDEEMKKIVLKVVKQCCGTDGVEANYIKTEILPPFFKHFWQHRMALDRRNYRQLVDTTVELANKVGAAEIISRIVDDLKDEAEQYRKMVMETIEKIMGNLGAADIDHKLEEQLIDGILYAFQEQTTEDSVMLNGFGTVVNALGKRVKPYLPQICGTVLWRLNNKSAKVRQQAADLISRTAVVMKTCQEEKLMGHLGVVLYEYLGEEYPEVLGSILGALKAIVNVIGMHKMTPPIKDLLPRLTPILKNRHEKVQENCIDLVGRIADRGAEYVSAREWMRICFELLELLKAHKKAIRRATVNTFGYIAKAIGPHDVLATLLNNLKVQERQNRVCTTVAIAIVAETCSPFTVLPALMNEYRVPELNVQNGVLKSLSFLFEYIGEMGKDYIYAVTPLLEDALMDRDLVHRQTASAVVQHMSLGVYGFGCEDSLNHLLNYVWPNVFETSPHVIQAVMGALEGLRVAIGPCRMLQYCLQGLFHPARKVRDVYWKIYNSIYIGSQDALIAHYPRIYNDDKNTYIRYELDYIL",3.17 log base 2,3.31 log base 2
−0.09 log base 2,0.37 log base 2,0.14 log base 2,"SH3PXD2B (protein, UniProt A1X283 1-911, looked up) SH3 and PX domain-containing …: MPPRRSIVEVKVLDVQKRRVPNKHYVYIIRVTWSSGSTEAIYRRYSKFFDLQMQMLDKFPMEGGQKDPKQRIIPFLPGKILFRRSHIRDVAVKRLIPIDEYCKALIQLPPYISQCDEVLQFFETRPEDLNPPKEEHIGKKKSGGDQTSVDPMVLEQYVVVANYQKQESSEISLSVGQVVDIIEKNESGWWFVSTAEEQGWVPATCLEGQDGVQDEFSLQPEEEEKYTVIYPYTARDQDEMNLERGAVVEVIQKNLEGWWKIRYQGKEGWAPASYLKKNSGEPLPPKPGPGSPSHPGALDLDGVSRQQNAVGREKELLSSQRDGRFEGRPVPDGDAKQRSPKMRQRPPPRRDMTIPRGLNLPKPPIPPQVEEEYYTIAEFQTTIPDGISFQAGLKVEVIEKNLSGWWYIQIEDKEGWAPATFIDKYKKTSNASRPNFLAPLPHEVTQLRLGEAAALENNTGSEATGPSRPLPDAPHGVMDSGLPWSKDWKGSKDVLRKASSDMSASAGYEEISDPDMEEKPSLPPRKESIIKSEGELLERERERQRTEQLRGPTPKPPGVILPMMPAKHIPPARDSRRPEPKPDKSRLFQLKNDMGLECGHKVLAKEVKKPNLRPISKSKTDLPEEKPDATPQNPFLKSRPQVRPKPAPSPKTEPPQGEDQVDICNLRSKLRPAKSQDKSLLDGEGPQAVGGQDVAFSRSFLPGEGPGRAQDRTGKQDGLSPKEISCRAPPRPAKTTDPVSKSVPVPLQEAPQQRPVVPPRRPPPPKKTSSSSRPLPEVRGPQCEGHESRAAPTPGRALLVPPKAKPFLSNSLGGQDDTRGKGSLGPWGTGKIGENREKAAAASVPNADGLKDSLYVAVADFEGDKDTSSFQEGTVFEVREKNSSGWWFCQVLSGAPSWEGWIPSNYLRKKP",3.07 log base 2,3.71 log base 2

# More lines, now with the values behind:
Molecule,Relative to UNC0638 UNC Heavy [1],Relative to UNC0638 UNC Light [1],Relative to UNC0638 Average [1],3xMBT/D355N UNC Heavy [2],3xMBT/D355N UNC Light [2]
"DSTN (protein, UniProt P60981 2-165, looked up) Destrin: ASGVQVADEVCRIFYDMKVRKCSTPEEIKKRKKAVIFCLSADKKCIIVEEGKEILVGDVGVTITDPFKHFVGMLPEKDCRYALYDASFETKESRKEELMFFLWAPELAPLKSKMIYASSKDAIKKKFQGIKHECQANGPEDLNRACIAEKLGGSLIVAFEGCPV",0.24 log base 2,0.04 log base 2,0.14 log base 2,3.00 log base 2,2.54 log base 2
"U2AF1 (protein, UniProt Q01081 2-240, looked up) Splicing factor U2AF 35 kDa …: AEYLASIFGTEKDKVNCSFYFKIGACRHGDRCSRLHNKPTFSQTIALLNIYRNPQNSSQSADGLRCAVSDVEMQEHYDEFFEEVFTEMEEKYGEVEEMNVCDNLGDHLVGNVYVKFRREEDAEKAVIDLNNRWFNGQPIHAELSPVTDFREACCRQYEMGECTRGGFCNFMHLKPISRELRRELYGRRRKKHRSRSRSRERRSRSRDRGRGGGGGGGGGGGGRERDRRRSRDRERSGRF",0.20 log base 2,0.08 log base 2,0.14 log base 2,3.19 log base 2,2.52 log base 2
